From paper PMC10326071

Key:
[1] = target: middle domain of human Paip1 (Paip1M, residues 78-296) (human) (UniProt Q9H074); experiment: BLI; […]; association 30 s, dissociation 80 s; 25 C; global fit, 1:1 model
[2] = target: middle domain of human poly(A)-binding protein-interacting protein 1 (Paip1M, residues 78-296) (human) (UniProt Q9H074); experiment: BLI; […]; 1×PBS pH 7.4, 0.1% surfactant P20, 0.1% BSA, 500 mM NaCl; 25 °C; global fit, 1:1 model
SARS-CoV-2 SUD-core [3] = target: T1, SARS-CoV-2 SUD-core (SARS-CoV-2, UniProt P0DTD1 1231-1494); experiment: EMSA; no compound; settings: protein: recombinant; tags: N-terminal 6xHis; label: none stated; SYBR-Gold stain; G4 (predicted)
SARS-CoV-2 SUD-core [4] = target: T1, SARS-CoV-2 SUD-core; experiment: BLI; settings: protein: recombinant; tags: N-terminal 6xHis; G4
SARS-CoV SUD-core = SARS-CoV SUD-core (SARS-CoV, UniProt P0C6X7 1207-1470); experiment: BLI; settings: protein: recombinant; tags: N-terminal 6xHis; G4
SARS-CoV-2 SUD-core [5] = target: T1, SARS-CoV-2 SUD-core; experiment: BLI; Fig. 2C titration; settings: protein: recombinant; tags: N-terminal 6xHis; G4

Chain of middle domain of human Paip1 (Paip1M, residues 78-296) (human) (Q9H074 157-375): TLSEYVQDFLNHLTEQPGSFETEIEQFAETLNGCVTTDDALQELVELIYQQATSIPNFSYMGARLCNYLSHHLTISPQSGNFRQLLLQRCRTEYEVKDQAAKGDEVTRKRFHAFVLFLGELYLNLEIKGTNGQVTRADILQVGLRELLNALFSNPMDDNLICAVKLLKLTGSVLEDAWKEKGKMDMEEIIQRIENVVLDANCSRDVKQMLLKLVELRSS
Chain of middle domain of human poly(A)-binding protein-interacting protein 1 (Paip1M, residues 78-296) (human) (Q9H074 157-375): as above

Molecule: SARS-CoV-2 SUD-core (nsp3 residues 413-676) (domain or fragment)
- koff [1]: 0.0055 s⁻¹

Molecule: SARS-CoV SUD-core (nsp3 389-652) (domain or fragment)
- koff [1]: 0.0066 s⁻¹
- Kd [2]: 4400 nM

Molecule: GGCUUAUAGGUUUAAUGGUAUUGG (structured_RNA) [G4-24268 (EMSA)]
- binding result (SARS-CoV-2 SUD-core [3]): binds

Molecule: CGGGAGGGCGGGGAGGGC (structured_RNA) [G4-TRF2 (BLI)]
- Kd (SARS-CoV-2 SUD-core [4]): 35.8 nM
- Kd (SARS-CoV SUD-core): 17 nM
- Kd (SARS-CoV-2 SUD-core [5]): 170 nM
